# Laboratory results published in PMC4499140 (Nucleic Acids Research, 2015).
# T1: Rv1222 (Mycobacterium tuberculosis H37Rv) (UniProt L0T905)
# T1 sequence: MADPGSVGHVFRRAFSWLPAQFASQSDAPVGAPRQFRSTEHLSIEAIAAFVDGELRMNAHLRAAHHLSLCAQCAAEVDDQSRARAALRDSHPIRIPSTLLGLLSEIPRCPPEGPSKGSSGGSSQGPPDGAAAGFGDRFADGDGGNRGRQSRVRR
# T2: Mycobacterium tuberculosis sigma factor A (Mycobacterium tuberculosis, UniProt P9WGI1 1-528)
# T2 sequence: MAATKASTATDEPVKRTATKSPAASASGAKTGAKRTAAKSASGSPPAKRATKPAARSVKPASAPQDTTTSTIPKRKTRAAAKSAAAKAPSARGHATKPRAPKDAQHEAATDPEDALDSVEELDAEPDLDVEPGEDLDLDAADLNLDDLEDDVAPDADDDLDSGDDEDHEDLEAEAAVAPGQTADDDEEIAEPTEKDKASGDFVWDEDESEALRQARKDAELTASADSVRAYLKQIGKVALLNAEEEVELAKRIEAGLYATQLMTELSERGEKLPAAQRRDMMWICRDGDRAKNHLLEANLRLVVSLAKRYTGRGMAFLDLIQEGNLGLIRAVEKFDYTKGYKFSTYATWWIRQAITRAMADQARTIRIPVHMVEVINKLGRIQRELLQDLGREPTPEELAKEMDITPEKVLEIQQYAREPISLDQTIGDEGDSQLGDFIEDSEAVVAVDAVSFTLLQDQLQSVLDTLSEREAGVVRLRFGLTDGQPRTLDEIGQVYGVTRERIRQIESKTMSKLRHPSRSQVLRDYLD
# T3: Mycobacterium tuberculosis sigma factor E (Mycobacterium tuberculosis, UniProt P9WGG7 1-257)
# T3 sequence: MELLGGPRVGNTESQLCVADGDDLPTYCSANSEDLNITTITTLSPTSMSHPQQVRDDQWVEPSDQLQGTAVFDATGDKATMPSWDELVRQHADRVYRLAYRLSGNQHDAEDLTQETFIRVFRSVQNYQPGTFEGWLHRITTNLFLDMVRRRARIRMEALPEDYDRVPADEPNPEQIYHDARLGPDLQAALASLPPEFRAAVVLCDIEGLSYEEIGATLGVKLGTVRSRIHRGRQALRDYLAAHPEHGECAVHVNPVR
# Key:
# [1] = target: T1, Rv1222 (Mycobacterium tuberculosis H37Rv); experiment: fluorescence anisotropy
# [2] = target: E. coli DNA polymerase (Klenow fragment) (E. coli, UniProt P00582 324-928); experiment: fluorescence polarisation
# [3] = target: T2, Mycobacterium tuberculosis sigma factor …; experiment: fluorescence polarisation
# [4] = target: T3, Mycobacterium tuberculosis sigma factor …; experiment: fluorescence polarisation
# E. coli DNA polymerase (Klenow fragment), sequence (P00582 324-928): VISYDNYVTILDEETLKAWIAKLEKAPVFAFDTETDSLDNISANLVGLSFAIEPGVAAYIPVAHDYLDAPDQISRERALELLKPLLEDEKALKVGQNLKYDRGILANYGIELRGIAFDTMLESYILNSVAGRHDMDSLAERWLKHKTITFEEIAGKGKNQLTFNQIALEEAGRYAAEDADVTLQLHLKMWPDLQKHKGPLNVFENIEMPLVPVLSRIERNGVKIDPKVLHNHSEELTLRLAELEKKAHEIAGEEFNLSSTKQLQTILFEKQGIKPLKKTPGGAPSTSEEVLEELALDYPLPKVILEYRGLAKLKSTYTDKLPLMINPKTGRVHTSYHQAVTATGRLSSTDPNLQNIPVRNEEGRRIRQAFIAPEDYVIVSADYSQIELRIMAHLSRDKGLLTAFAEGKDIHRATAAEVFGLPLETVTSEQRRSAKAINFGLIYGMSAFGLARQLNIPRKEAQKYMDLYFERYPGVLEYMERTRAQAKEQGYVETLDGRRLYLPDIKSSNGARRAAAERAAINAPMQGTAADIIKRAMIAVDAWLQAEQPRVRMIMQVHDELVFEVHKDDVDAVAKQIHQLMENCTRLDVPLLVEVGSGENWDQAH
molecule,measurement,setting,value
GTGAGTATCTCGCAGTCCGACGCGTCGTTGGCCGCCGTCCCCGCCGTGGATCAGTTCGATCCGTCGTCAGGTGCATCAGGTGGCTACGACACCCCGCTGGGCATCACCAATCCGCCCATCGACGAGTTGCTGGACCGCGTCTCGAGCAAATACGCCCTCGTGATCTATGCGGCAAAGCGTGCCCGGCAGATCAACGACTACTACAACCAGCTTGGCGAGGGCATCCTCGAATATGTCGGTCCGCTGGTTGAGCCGGGGTTGCAAGAGAAGCCGTTGTCCATCGCGTTGCGCGAGATCCACGCCGATCTGCTCGAGCACACCGAGGGCGAGTAG (double strand) [promoterless DNA fragment],Kd,[1],52 nM
"Rv1222 of Mycobacterium tuberculosis, TMR labelled (natural protein) MADPGSVGHVFRRAFSWLPAQFASQSDAPVGAPRQFRSTEHLSIEAIAAFVDGELRMNAHLRAAHHLSLCAQCAAEVDDQSRARAALRDSHPIRIPSTLLGLLSEIPRCPPEGPSKGSSGGSSQGPPDGAAAGFGDRFADGDGGNRGRQSRVRR",Kd,[2],245 ± 78 nM
same,Kd,[3],~690 nM
same,Kd,[4],~270 nM
